Data as given in the supplement of paper PMC5998384.

What was measured:
[1] = tested on: HeLa Kyoto; experiment: solubility in G1/S (NP-40 vs SDS abundance) (log2 ratio); higher = more soluble; details: cell cycle stage: G1/S
[2] = tested on: HeLa Kyoto; experiment: melting temperature (median over replicates), in situ; higher = more thermally stable
[3] = tested on: HeLa Kyoto; experiment: thermal stability score vs G1/S (z-score of summed log2 fold changes over temperatures); higher = more thermally stable than in G1/S
[4] = tested on: HeLa Kyoto; experiment: solubility change mitosis vs G1/S (difference of NP-40 vs SDS log2 ratios) (log2 ratio difference); higher = more soluble in mitosis
[5] = cell cycle stage: early G1 (4.5 h after nocodazole release)
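Throughout, for melting temperature (median over replicates), in situ: HeLa Kyoto cells synchronized by double thymidine or nocodazole block, proteins quantified by TMT10plex mass spectrometry, three independent biological replicates.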
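Throughout, for solubility change mitosis vs G1/S (difference of NP-40 vs SDS log2 ratios): synchronized HeLa Kyoto cells (double thymidine block for G1/S, nocodazole release for mitosis), protein amounts in NP-40 versus SDS lysates quantified by mass spectrometry, three biological replicates.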
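Throughout, for solubility in G1/S (NP-40 vs SDS abundance): HeLa Kyoto cells arrested at G1/S by double thymidine block, proteins quantified by TMT10plex mass spectrometry in mild NP-40 versus SDS extracts, three biological replicates.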
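Throughout, for thermal stability score vs G1/S (z-score of summed log2 fold changes over temperatures): synchronized HeLa Kyoto cells, proteins quantified by TMT10plex mass spectrometry, three biological replicates, mitosis taken 0.5 h after nocodazole release, G1/S directly after double thymidine block.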

Chain of RHOC (chain, as listed by the source): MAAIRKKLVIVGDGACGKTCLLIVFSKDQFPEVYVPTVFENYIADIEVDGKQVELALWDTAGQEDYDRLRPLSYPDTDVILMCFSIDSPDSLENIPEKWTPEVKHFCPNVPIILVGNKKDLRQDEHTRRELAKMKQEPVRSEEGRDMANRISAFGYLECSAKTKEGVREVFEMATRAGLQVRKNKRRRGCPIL

Substance | solubility in G1/S (log2) [1] | melting temperature ([2]; cell cycle stage: G1/S) [°C] | melting temperature ([2]; cell cycle stage: mitosis) [°C] | thermal stability score [3, 5] | thermal stability score ([3]; cell cycle stage: mitosis) | solubility change mitosis (log2) [4]
MTAEDSTAAMSSDSAAGSSAKVPEGVAGAPNEAALLALMERTGYSMVQENGQRKYGGPPPGWEGPHPQRGCEVFVGKIPRDVYEDELVPVFEAVGRIYELRLMMDFDGKNRGYAFVMYCHKHEAKRAVRELNNYEIRPGRLLGVCCSVDNCRLFIGGIPKMKKREEILEEIAKVTEGVLDVIVYASAADKMKNRGFAFVEYESHRAAAMARRKLMPGRIQLWGHQIAVDWAEPEIDVDEDVMETVKILYVRNLMIETTEDTIKKSFGQFNPGCVERVKKIRDYAFVHFTSREDAVHAMNNLNGTELEGSCLEVTLAKPVDKEQYSRYQKAARGGGAAEAAQQPSYVYSCDPYTLAYYGYPYNALIGPNRDYFVKAGSIRGRGRGAAGNRAPGPRGSYLGGYSAGRGIYSRYHEGKGKQQEKGYELVPNLEIPTVNPVAIKPGTVAIPAIGAQYSMFPAAPAPKMIEDGKIHTVEHMISPIAVQPDPASAAAAAAAAAAAAAAVIPTVSTPPPFQGRPITPVYTVAPNVQRIPTAGIYGASYVPFAAPATATIATLQKNAAAAAAMYGGYAGYIPQAFPAAAIQVPIPDVYQTY [RBM47] | -0.0256 | 48.2 | 47.4 | 0.77 | 1.83 | -0.0191
MECLRSLPCLLPRAMRLPRRTLCALALDVTSVGPPVAACGRRANLIGRSRAAQLCGPDRLRVAGEVHRFRTSDVSQATLASVAPVFTVTKFDKQGNVTSFERKKTELYQELGLQARDLRFQHVMSITVRNNRIIMRMEYLKAVITPECLLILDYRNLNLEQWLFRELPSQLSGEGQLVTYPLPFEFRAIEALLQYWINTLQGKLSILQPLILETLDALVDPKHSSVDRSKLHILLQNGKSLSELETDIKIFKESILEILDEEELLEELCVSKWSDPQVFEKSSAGIDHAEEMELLLENYYRLADDLSNAARELRVLIDDSQSIIFINLDSHRNVMMRLNLQLTMGTFSLSLFGLMGVAFGMNLESSLEEDHRIFWLITGIMFMGSGLIWRRLLSFLGRQLEAPLPPMMASLPKKTLLADRSMELKNSLRLDGLGSGRSILTNR [MRS2] | -0.297 | 55.4 | 54.5 | -1.88 | -2.56 | 0.124
MAVELGVLLVRPRPGTGLGRVMRTLLLVLWLATRGSALYFHIGETEKKCFIEEIPDETMVIGNYRTQLYDKQREEYQPATPGLGMFVEVKDPEDKVILARQYGSEGRFTFTSHTPGEHQICLHSNSTKFSLFAGGMLRVHLDIQVGEHANDYAEIAAKDKLSELQLRVRQLVEQVEQIQKEQNYQRWREERFRQTSESTNQRVLWWSILQTLILVAIGVWQMRHLKSFFEAKKLV [TMED9] | 0.375 | 55.7 | 56.7 | 1.59 | 1.3 | 0.0692
MSMEDPFFVVKGEVQKAVNTAQGLFQRWTELLQDPSTATREEIDWTTNELRNNLRSIEWDLEDLDETISIVEANPRKFNLDATELSIRKAFITSTRQVVRDMKDQMSTSSVQALAERKNRQALLGDSGSQNWSTGTTDKYGRLDRELQRANSHFIEEQQAQQQLIVEQQDEQLELVSGSIGVLKNMSQRIGGELEEQAVMLEDFSHELESTQSRLDNVMKKLAKVSHMTSDRRQWCAIAILFAVLLVVLILFLVL [STX6] | -0.167 | 53.5 | 52.9 | 1.56 | -0.616 | -0.118
RHOC | 0.0468 | 53.8 | 54.8 | -0.123 | -1.75 | -0.013
MRKRTEPVALEHERCAAAGSSSSGSAAAALDADCRLKQNLRLTGPAAAEPRCAADAGMKRALGRRKGVWLRLRKILFCVLGLYIAIPFLIKLCPGIQAKLIFLNFVRVPYFIDLKKPQDQGLNHTCNYYLQPEEDVTIGVWHTVPAVWWKNAQGKDQMWYEDALASSHPIILYLHGNAGTRGGDHRVELYKVLSSLGYHVVTFDYRGWGDSVGTPSERGMTYDALHVFDWIKARSGDNPVYIWGHSLGTGVATNLVRRLCERETPPDALILESPFTNIREEAKSHPFSVIYRYFPGFDWFFLDPITSSGIKFANDENVKHISCPLLILHAEDDPVVPFQLGRKLYSIAAPARSFRDFKVQFVPFHSDLGYRHKYIYKSPELPRILREFLGKSEPEHQH [ABHD12] | 0.0996 | 53 | 54.9 | 0.18 | -0.815 | 0.0278
MASADSRRVADGGGAGGTFQPYLDTLRQELQQTDPTLLSVVVAVLAVLLTLVFWKLIRSRRSSQRAVLLVGLCDSGKTLLFVRLLTGLYRDTQTSITDSCAVYRVNNNRGNSLTLIDLPGHESLRLQFLERFKSSARAIVFVVDSAAFQREVKDVAEFLYQVLIDSMGLKNTPSFLIACNKQDIAMAKSAKLIQQQLEKELNTLRVTRSAAPSTLDSSSTAPAQLGKKGKEFEFSQLPLKVEFLECSAKGGRGDVGSADIQDLEKWLAKIA [SRPRB] | 0.446 | 50.2 | 50 | 3.56 | 5.21 | -0.0359
MQNSHMDEYRNSSNGSTGNSSEVVVEHPTDFSTEIMNVTEMEQSPDDSPNVNASTEETEMASAVDLPVTLTETEANFPPEYEKFWKTVENNPQDFTGWVYLLQYVEQENHLMAARKAFDRFFIHYPYCYGYWKKYADLEKRHDNIKPSDEVYRRGLQAIPLSVDLWIHYINFLKETLDPGDPETNNTIRGTFEHAVLAAGTDFRSDRLWEMYINWENEQGNLREVTAIYDRILGIPTQLYSHHFQRFKEHVQNNLPRDLLTGEQFIQLRRELASVNGHSGDDGPPGDDLPSGIEDITDPAKLITEIENMRHRIIEIHQEMFNYNEHEVSKRWTFEEGIKRPYFHVKPLEKAQLKNWKEYLEFEIENGTHERVVVLFERCVISCALYEEFWIKYAKYMENHSIEGVRHVFSRACTIHLPKKPMVHMLWAAFEEQQGNINEARNILKTFEECVLGLAMVRLRRVSLERRHGNLEEAEHLLQDAIKNAKSNNESSFYAVKLARHLFKIQKNLPKSRKVLLEAIERDKENTKLYLNLLEMEYSGDLKQNEENILNCFDKAVHGSLPIKMRITFSQRKVEFLEDFGSDVNKLLNAYDEHQTLLKEQDSLKRKAENGSEEPEEKKAHTEDTTSSSTQMIDGDLQANQAVYNYSAWYQYNYQNPWNYGQYYPPPPT [PRPF39] | 0.0352 | 47.2 | 50.4 | 1.54 | 2.13 | -0.157
MMLGPEGGEGFVVKLRGLPWSCSVEDVQNFLSDCTIHDGAAGVHFIYTREGRQSGEAFVELGSEDDVKMALKKDRESMGHRYIEVFKSHRTEMDWVLKHSGPNSADSANDGFVRLRGLPFGCTKEEIVQFFSGLEIVPNGITLPVDPEGKITGEAFVQFASQELAEKALGKHKERIGHRYIEVFKSSQEEVRSYSDPPLKFMSVQRPGPYDRPGTARRYIGIVKQAGLERMRPGAYSTGYGGYEEYSGLSDGYGFTTDLFGRDLSYCLSGMYDHRYGDSEFTVQSTTGHCVHMRGLPYKATENDIYNFFSPLNPVRVHIEIGPDGRVTGEADVEFATHEEAVAAMSKDRANMQHRYIELFLNSTTGASNGAYSSQVMQGMGVSAAQATYSGLESQSVSGCYGAGYSGQNSMGGYD [HNRNPF] | -0.0868 | 48 | 49 | 3.58 | 9.17 | -0.0538
